According to the supplement of paper PMC11136658:

Test system: peptide library, one residue held at a place counted from the Y acceptor
Assay: relative phosphorylation of the sub-library (ratio to the mean residue at this position); higher = residue favoured
Procedure, shortened: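 Peptide library mixtures, biotinylated and centred on Tyr, each fixed one residue at one position from −5 to +5. Purified recombinant kinases were incubated with them for 90 min in 384-well plates alongside 50 μM ATP and γ-32P-ATP, and the captured, rinsed peptides on streptavidin membranes were measured by phosphorimaging and ImageQuant. Normalization divided each position's intensities by the sum of its 18 randomized residues (16 for the Ser/Thr-free library) and multiplied by that number, so that values give phosphorylation relative to the mean randomized residue.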

Chain of TEK, construct: aa771-end, human (Q02763 771-1124, looked up): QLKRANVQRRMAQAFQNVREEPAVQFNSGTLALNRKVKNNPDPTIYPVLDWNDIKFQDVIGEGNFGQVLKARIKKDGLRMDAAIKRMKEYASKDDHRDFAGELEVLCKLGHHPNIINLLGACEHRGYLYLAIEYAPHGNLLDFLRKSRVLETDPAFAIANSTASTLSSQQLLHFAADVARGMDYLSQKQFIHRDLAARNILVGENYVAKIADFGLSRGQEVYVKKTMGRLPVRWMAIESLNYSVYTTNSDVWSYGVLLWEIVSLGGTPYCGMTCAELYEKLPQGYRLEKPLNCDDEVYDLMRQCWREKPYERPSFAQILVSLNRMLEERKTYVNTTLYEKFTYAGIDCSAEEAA
Chain of TESK1, construct: aa1-345, human (Q15569 1-345, looked up): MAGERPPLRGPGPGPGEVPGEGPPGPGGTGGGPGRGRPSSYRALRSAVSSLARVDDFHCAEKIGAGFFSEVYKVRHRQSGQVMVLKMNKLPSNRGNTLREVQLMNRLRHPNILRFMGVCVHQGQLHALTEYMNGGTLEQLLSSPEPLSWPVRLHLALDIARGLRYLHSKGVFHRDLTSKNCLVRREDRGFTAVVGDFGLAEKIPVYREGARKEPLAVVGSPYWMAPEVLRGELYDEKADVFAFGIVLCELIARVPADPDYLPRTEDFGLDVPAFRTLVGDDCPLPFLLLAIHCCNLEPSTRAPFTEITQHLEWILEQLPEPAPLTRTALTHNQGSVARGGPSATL

TEK, construct: aa771-end, human (from UniProt Q02763)
relative phosphorylation
Conditions | at +1 | at +2 | at +3 | at +4 | at +5 | at -1 | at -2 | at -3 | at -4 | at -5
A fixed | 0.824 | 0.564 | 0.495 | 0.84 | 1.16 | 0.673 | 0.88 | 0.762 | 1.02 | 0.755
D fixed | 0.525 | 0.606 | 0.254 | 0.752 | 0.411 | 0.863 | 0.972 | 0.981 | 0.932 | 0.844
E fixed | 1.78 | 1.11 | 0.233 | 0.854 | 0.367 | 1.07 | 1.19 | 1.06 | 0.927 | 0.772
F fixed | 0.935 | 1.43 | 1.97 | 1.16 | 0.471 | 1.19 | 0.833 | 1.21 | 0.976 | 1.18
G fixed | 0.429 | 0.332 | 0.395 | 1.05 | 1.68 | 0.512 | 1.11 | 0.972 | 1.3 | 1.16
H fixed | 1.12 | 0.955 | 1.47 | 1.06 | 0.691 | 1.2 | 1.09 | 1.08 | 0.997 | 1.03
I fixed | 1.37 | 1.07 | 1.89 | 0.823 | 0.478 | 1.42 | 0.936 | 0.794 | 0.792 | 0.969
K fixed | 0.577 | 0.6 | 0.665 | 0.986 | 0.996 | 0.594 | 0.83 | 0.828 | 1.26 | 1.26
L fixed | 1.06 | 1.67 | 1.49 | 1.11 | 0.509 | 1.92 | 0.94 | 0.854 | 0.908 | 0.898
M fixed | 1.16 | 1.4 | 1.18 | 1.42 | 0.608 | 1.5 | 0.868 | 0.988 | 0.839 | 0.948
N fixed | 0.54 | 1.01 | 0.429 | 0.846 | 0.844 | 1.03 | 1.15 | 1.27 | 1.09 | 1.14
P fixed | 1.31 | 0.606 | 0.505 | 1.43 | 3.89 | 0.878 | 0.913 | 1 | 1.07 | 0.967
Q fixed | 1.15 | 0.913 | 0.581 | 1.31 | 0.866 | 0.891 | 1.25 | 1.01 | 1.16 | 1.03
R fixed | 0.705 | 0.717 | 0.658 | 1.05 | 0.944 | 0.56 | 0.935 | 0.936 | 1.22 | 1.37
S fixed | 0.816 | 0.725 | 0.445 | 0.795 | 1.97 | 0.756 | 1.06 | 1.11 | 0.917 | 0.963
T fixed | 0.951 | 0.873 | 0.746 | 0.734 | 1.03 | 0.921 | 1.08 | 1.06 | 0.789 | 0.955
V fixed | 1.89 | 1.03 | 1.81 | 0.871 | 0.498 | 1.22 | 0.926 | 0.941 | 0.787 | 0.852
W fixed | 0.848 | 2.39 | 2.79 | 0.901 | 0.587 | 0.812 | 1.02 | 1.15 | 1.03 | 0.901
pThr fixed | 0.806 | 1.6 | 0.252 | 0.346 | 0.313 | 1.22 | 0.849 | 0.769 | 0.71 | 0.686
pTyr fixed | 2.39 | 1.81 | 0.341 | 0.473 | 0.276 | 1.97 | 0.786 | 1.34 | 0.874 | 0.643

TESK1, construct: aa1-345, human (from UniProt Q15569)
relative phosphorylation
Conditions | at +1 | at +2 | at +3 | at +4 | at +5 | at -1 | at -2 | at -3 | at -4 | at -5
A fixed | 0.921 | 0.778 | 0.879 | 0.762 | 0.876 | 0.971 | 0.967 | 0.874 | 0.973 | 0.938
D fixed | 0.992 | 0.998 | 0.881 | 0.902 | 0.794 | 0.977 | 0.822 | 0.931 | 0.858 | 0.85
E fixed | 0.876 | 0.917 | 0.871 | 0.854 | 0.839 | 0.953 | 0.833 | 0.776 | 0.792 | 0.742
F fixed | 0.935 | 1.11 | 0.936 | 0.966 | 0.869 | 0.778 | 0.911 | 0.926 | 0.984 | 0.883
G fixed | 0.887 | 0.899 | 0.928 | 1.03 | 0.915 | 1 | 1.09 | 1.11 | 1.13 | 1.05
H fixed | 1.01 | 1.09 | 1.06 | 1.07 | 1.17 | 0.962 | 0.976 | 0.915 | 0.949 | 0.975
I fixed | 0.796 | 0.626 | 0.682 | 0.781 | 0.734 | 0.774 | 0.952 | 0.79 | 0.823 | 0.861
K fixed | 1.13 | 1.27 | 1.23 | 1.3 | 1.15 | 1.18 | 1.34 | 1.25 | 1.26 | 1.35
L fixed | 0.81 | 0.812 | 0.783 | 0.913 | 0.807 | 0.831 | 0.92 | 0.918 | 0.816 | 0.862
M fixed | 0.76 | 0.796 | 0.831 | 0.928 | 0.841 | 0.835 | 0.81 | 0.846 | 0.869 | 0.82
N fixed | 1.05 | 1.16 | 1.11 | 0.978 | 0.964 | 1.17 | 1.01 | 0.971 | 0.921 | 0.964
P fixed | 1.02 | 1.09 | 1.15 | 1.28 | 1.05 | 1.26 | 1.07 | 1.36 | 1.16 | 1.1
Q fixed | 1.09 | 1.09 | 1.02 | 1.09 | 0.929 | 1 | 0.842 | 1.04 | 0.891 | 0.831
R fixed | 1.18 | 1.25 | 1.23 | 1.19 | 1.27 | 1.26 | 1.27 | 1.29 | 1.2 | 1.27
V fixed | 0.817 | 0.69 | 0.72 | 0.764 | 0.713 | 0.743 | 0.946 | 0.864 | 0.875 | 0.881
W fixed | 1.72 | 1.44 | 1.69 | 1.19 | 2.09 | 1.29 | 1.24 | 1.14 | 1.5 | 1.62
pThr fixed | 0.988 | 0.893 | 0.765 | 0.809 | 0.615 | 1.05 | 0.932 | 0.934 | 0.929 | 0.776
pTyr fixed | 0.746 | 0.819 | 0.738 | 0.714 | 0.627 | 0.861 | 0.798 | 0.896 | 0.669 | 0.711
